Source: the supplement of paper PMC12455559
± gives the standard deviation of the averaged measurements.

Assays:
[1] = PET hydrolysis, aromatic products released after 48 h (umol product/mg enzyme); higher = more PET depolymerization activity
Experimental: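 HTP-purified, SUMO-cleaved, tagless PET hydrolase candidates (5 ug, 1.43 mg/g PET) were incubated 48 h without shaking with 3.5 mg amorphous PET film (aFilm) or crystalline PET powder (cryPow) in 0.5 mL buffer: NaCitrate pH 4.5/5.5, NaPhosphate pH 6.5/7.5, glycine pH 8.5. Incubation was at 40 or 60 C. Aromatic products (TPA, MHET, BHET) in the supernatant were quantified by UV absorbance at 260/280 nm relative to buffer blanks and expressed per mg enzyme. LCC-ICCG was the positive control on every plate.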

[2] = melting temperature (DSF); higher = more thermostable
Experimental: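 Candidate PET hydrolases were expressed in E. coli C41(DE3) in 2 mL autoinduction cultures in 24-deep-well plates, Ni-bead purified and released by SUMO protease cleavage on an OT-2 robot. Yield per well was measured by BCA; values below 25 ug (0.1 mg/mL) are below the detection threshold. Melting temperature was measured by differential scanning fluorimetry with Sypro Orange, ramping from 25 C at 0.3 C/step.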

[3] = purified protein yield per well (BCA); higher = higher soluble expression
How it was run: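 Candidate enzymes were produced in E. coli C41(DE3) grown in 2 mL autoinduction cultures containing 100 µg/mL kanamycin, first at 37 °C for 2 h and then at 18 °C for 40 h. After cell lysis, protein was captured on Ni-charged magnetic beads and freed by SUMO protease cleavage on an OT-2 robot. Purified protein yield per well was read with the Pierce Rapid Gold BCA kit. Values under 25 ug (0.1 mg/mL) fall below the detection threshold.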

[4] = substrate: cryPow, 40 °C, pH 4.5
[5] = substrate: cryPow, 40 °C, pH 5.5
[6] = substrate: cryPow, 40 °C, pH 6.5
[7] = substrate: cryPow, 40 °C, pH 7.5
[8] = substrate: cryPow, 60 °C, pH 4.5
[9] = substrate: cryPow, 60 °C, pH 5.5
[10] = substrate: cryPow, 60 °C, pH 6.5
[11] = substrate: cryPow, 60 °C, pH 7.5

Sequence	PET hydrolysis [1, 4]	PET hydrolysis [1, 5]	PET hydrolysis [1, 6]	PET hydrolysis [1, 7]	melting temperature [2] [C]	purified protein yield per well [3] [µg]	PET hydrolysis [1, 8]	PET hydrolysis [1, 9]	PET hydrolysis [1, 10]	PET hydrolysis [1, 11]	PET hydrolysis ([1]; substrate: cryPow, 40 °C, pH 8.5)	PET hydrolysis ([1]; substrate: cryPow, 60 °C, pH 8.5)	PET hydrolysis ([1]; substrate: aFilm, 40 °C, pH 4.5)	PET hydrolysis ([1]; substrate: aFilm, 40 °C, pH 5.5)	PET hydrolysis ([1]; substrate: aFilm, 40 °C, pH 6.5)	PET hydrolysis ([1]; substrate: aFilm, 40 °C, pH 7.5)	PET hydrolysis ([1]; substrate: aFilm, 60 °C, pH 4.5)	PET hydrolysis ([1]; substrate: aFilm, 60 °C, pH 5.5)	PET hydrolysis ([1]; substrate: aFilm, 60 °C, pH 6.5)	PET hydrolysis ([1]; substrate: aFilm, 60 °C, pH 7.5)
AAAAGRADQRGPDPSVAGVAATYGPFATAQLTVPAGNGFNGGYIYYPTDTSLGTWGAVAIVPGYSALFANEEAWMGPRLASFGFVVIGIETTTRTDGADARATQLLAALDYLTQRSPVRDRVDPGRLAVMGHSAGGAGALLAAMRRPSLRAVVGLAPGSPTGLSSLSTDVVPTLFVGGQQDPTVTPSYLDNLYATLPASTQSAYVQLGGADHLFFTRANDVEIRRLVPWLKLFLDGDTRYTQFMCPTTPDTTGVSRYSAKCPLVPPGGPTGSASPSSPGASNSPSSPPASSSAPGAACVATYRTVGQWSGGFQGEVTVTAGGRPVNGWTVRWALGSGQAVSQLWNGALSTSGSAVSVRNVSYNGALAASASTTFGFLGSGTPSTPALSCTSP [ESM041]	< 3	< 3	< 3	< 3	47.8	106	–	–	–	–	–	–	–	–	–	–	–	–	–	–
AADNPYQRGPDPTPASVSANRGTFATTQVAVAAGNGFGGGVIYYPTDTSQGQFGAIAVVPGYTATWAAEGAWMGHWLASFGFVVIGIDTNNRNDWDTARGTQLLAALDYLTQRSSVRDRVDATRTAVMGHSMGGGGAASASLQRPSLKASIGLAPASFSQNLTTTRVPTMLLSGQNDTTITPASVVNLYNGIPASVEKAYLELSGAGHGFPTSNNSTMMRNVIPWFKVFVDSDTRYTQFLCPLANWSGIRTYQSTCPLVPSTPPTSTTTSTTTSTTTSTTTTTTPQPVGACNATYRTTNSWPGGYQGEVTVTAGESGVNGWTTRWTLGSGQTVTQVWNGTLTVDGSTASVRNAAYNGSLPAGGSAAFGFIGGGTPPTSLTCTSP [ESM023]	< 3	< 3	< 3	5	55	221	< 3	< 3	< 3	< 3	–	–	–	–	–	–	–	–	–	–
AAGYERGPNPTSSALEATRGPFSVASTNVSSLSASGFGGGTIYYPTDTSQGTFGGVVIAPGYTASKSSMAWLAERLASHGFVVFNIDTITRSDQPDSRGRQILAAADHLAEESSSTVRRRLDASRIGVMGHSMGGGGTLAAADSRPSLKAAVPLTPWHLDKSWGNVRVPTMIIGAENDTIAAVGSHSEPFYNSLSAAPEKAYLELNGASHFAPNSDNDTIAKYGISWMKRFVDEDTRYDQFLCPAPGRSTTIEEYRSSCPHS [DP086]	–	< 3	< 3	< 3	39.1	90	–	< 3	< 3	< 3	< 3	< 3	–	–	–	–	–	–	–	–
AANPYERGPAPTAASIAATTGPFAVASVSVPRGNGFGGGVIYYPTSTSQGTFGGVAISPGLNGTWAGIAWLGPRLASQGFVIFGIETNNLNDSPASRGTQLLAALDFLTRSSSVRTRVDASRLAVAGHSMGGGGALSAALQRPSLQAAIGNAPHLPSGSLATDRVPTLIYAMQNDTLVTPSRLTSLYNSMPATTERAYIEVAGAGHNYIGQPSTTLARTMIPWLKIFVDNDARYSQFLCPLSNQSGISQYRNSCPLISTTTLSTGVDSTSGLAVR [ESM157]	< 3	17.5 ± 2.1	50	69.5 ± 3.5	61	313	< 3	3	7.5 ± 0.71	14.5 ± 0.71	–	–	< 3	< 3	< 3	< 3	< 3	< 3	< 3	< 3
AANPYERGPAPTDAVLEASRGPFATTSYSVSGLSVTGFGGGVVYYPTSTSEGTFGAIAISPGYTATWSSLSWLGPRIASHGFVVIGIETNTLLDQPDSRGRQLLAALDYLVQRSSVRGRIDAGRLAVAGHSMGGGGTLEAAAARPSLQAAVPLAPWNLDKTWSGVTVPTLIVGGESDSVAPVASHSVPFYNSIPASSEKAYLELNGASHFFPQSVNTPTAKQMVAWLKRFVDNDTRYEQFLCPGPSGLAIEEYRNTCPSS [TEP018]	< 3	< 3	< 3	< 3	40.6	65.6	< 3	< 3	< 3	< 3	–	–	–	–	–	–	–	–	–	–
TADSSYQRGPAPTEASVRADRGPFQVARVNVPGAGFGSGTIYYPTDTSQGTFGGVAVSPGFLSPEILIAWLGPRLASHGFVVITFTTNTPTDQPDSRGSQLLAALDYLTTQSPTAVRQRLDNTRLSVIGHSMGGGGALRAANDRPDLQAAVPLGPYHTTKDWSGVRVPTMIIGGQYDSIAPNDQHSERFYNSLDSAPEKAYLRVTGTTHITVGTGTPGVGKYVLSWLKRFVDDDTRYDQFLCPTPSGPDVVEYHSTCPHA [TEP009]	–	–	–	–	49.3	28.4	–	–	–	–	–	–	–	–	–	–	–	–	–	–
TNPAPPSTPNPPAEESPYVRGPNPTVSFLEARSGPLSVRTSRVSSLVSGFGGGTIHYPTGTTGTMGAVVVIPGFVSAESSIDWWGPKLASHGFVVLTIDTNTGFDQPPSRARQINNALDYLVSQNSSRTSPVRGMIDTNRLGVIGWSMGGGGTLRVASEGRIKAAIPLAPWDTVSSYAANAQAPTLIFACQADIVAPVAAHASPFYNRLPNSIDKAYVEISGGSHYCANGGGLNNNVLSRFGVSWMKRFLDEDTRYSQFLCGPNHRSDRDIADYRGNCP [ESM172]	–	–	–	–	49	26	–	–	–	–	–	–	–	–	–	–	–	–	–	–
